Data as given in patent publication US20240000834A1, “RAS MUTANT EPITOPE PEPTIDE AND T CELL RECEPTOR RECOGNIZING RAS MUTANT” (SHANGHAI GENBASE BIOTECHNOLOGY CO., LTD., priority 2020, published 2024).
Changes are numbered by the printed parent chain.

B1: β48Y-R: B13.14.1 TCR Vβ point mutant (protein)
TCR alpha: AQSVAQPEDQVNVAEGNPLTVKCTYSVSGNPYLFWYVQYPNRGLQFLLKYITGDNLVKGSYGFEAEFNKSQTSFHLKKPSALVSDSALYFCAVRDGRGGGNKLTFGTGTQLKVEL
TCR beta: GITQSPKYLFRKEGQNVTLSCEQNLNHDAMYWYRQDPGQGLRLIYRSQIVNDFQKGDIAEGYSVSREKKESFPLTVTSAQKNPTAFYLCASSPGQRDNSPLHFGNGTRLTVT
B2: β51I-A: B13.14.1 TCR Vβ point mutant (protein)
TCR alpha: B1 TCR alpha
TCR beta: B1 TCR beta with R46Y, I49A
B3: α32Y-H: B13.14.1 TCR Vα point mutant (protein)
TCR alpha: B1 TCR alpha with Y32H
TCR beta: B1 TCR beta with R46Y
B4: β51I-D: B13.14.1 TCR Vβ point mutant (protein)
TCR alpha: B1 TCR alpha
TCR beta: B1 TCR beta with R46Y, I49D
B5: β51I-P: B13.14.1 TCR Vβ point mutant (protein)
TCR alpha: B1 TCR alpha
TCR beta: B1 TCR beta with R46Y, I49P
B6: β51I-Y: B13.14.1 TCR Vβ point mutant (protein)
TCR alpha: B1 TCR alpha
TCR beta: B1 TCR beta with R46Y, I49Y
B7: α32Y-M: B13.14.1 TCR Vα point mutant (protein)
TCR alpha: B1 TCR alpha with Y32M
TCR beta: B1 TCR beta with R46Y
B8: α32Y-I: B13.14.1 TCR Vα point mutant (protein)
TCR alpha: B1 TCR alpha with Y32I
TCR beta: B1 TCR beta with R46Y
B9: β48Y-S: B13.14.1 TCR Vβ point mutant (protein)
TCR alpha: B1 TCR alpha
TCR beta: B1 TCR beta with R46S
B10: β51I-T: B13.14.1 TCR Vβ point mutant (protein)
TCR alpha: B1 TCR alpha
TCR beta: B1 TCR beta with R46Y, I49T
B11: α32Y-L: B13.14.1 TCR Vα point mutant (protein)
TCR alpha: B1 TCR alpha with Y32L
TCR beta: B1 TCR beta with R46Y
B12: β48Y-T: B13.14.1 TCR Vβ point mutant (protein)
TCR alpha: B1 TCR alpha
TCR beta: B1 TCR beta with R46T
B13: β51I-K: B13.14.1 TCR Vβ point mutant (protein)
TCR alpha: B1 TCR alpha
TCR beta: B1 TCR beta with R46Y, I49K
B14: α32Y-G: B13.14.1 TCR Vα point mutant (protein)
TCR alpha: B1 TCR alpha with Y32G
TCR beta: B1 TCR beta with R46Y
B15: α32Y-P: B13.14.1 TCR Vα point mutant (protein)
TCR alpha: B1 TCR alpha with Y32P
TCR beta: B1 TCR beta with R46Y
B16: β51I-G: B13.14.1 TCR Vβ point mutant (protein)
TCR alpha: B1 TCR alpha
TCR beta: B1 TCR beta with R46Y, I49G
B17: β51I-E: B13.14.1 TCR Vβ point mutant (protein)
TCR alpha: B1 TCR alpha
TCR beta: B1 TCR beta with R46Y, I49E
B18: β48Y-V: B13.14.1 TCR Vβ point mutant (protein)
TCR alpha: B1 TCR alpha
TCR beta: B1 TCR beta with R46V
B19: β48Y-W: B13.14.1 TCR Vβ point mutant (protein)
TCR alpha: B1 TCR alpha
TCR beta: B1 TCR beta with R46W
B20: α32Y-A: B13.14.1 TCR Vα point mutant (protein)
TCR alpha: B1 TCR alpha with Y32A
TCR beta: B1 TCR beta with R46Y
B21: β51I-F: B13.14.1 TCR Vβ point mutant (protein)
TCR alpha: B1 TCR alpha
TCR beta: B1 TCR beta with R46Y, I49F
B22: β51I-Q: B13.14.1 TCR Vβ point mutant (protein)
TCR alpha: B1 TCR alpha
TCR beta: B1 TCR beta with R46Y, I49Q
B23: β51I-L: B13.14.1 TCR Vβ point mutant (protein)
TCR alpha: B1 TCR alpha
TCR beta: B1 TCR beta with R46Y, I49L
B24: β51I-S: B13.14.1 TCR Vβ point mutant (protein)
TCR alpha: B1 TCR alpha
TCR beta: B1 TCR beta with R46Y, I49S
B25: β51I-H: B13.14.1 TCR Vβ point mutant (protein)
TCR alpha: B1 TCR alpha
TCR beta: B1 TCR beta with R46Y, I49H
B26: α32Y-R: B13.14.1 TCR Vα point mutant (protein)
TCR alpha: B1 TCR alpha with Y32R
TCR beta: B1 TCR beta with R46Y
B27: β51I-R: B13.14.1 TCR Vβ point mutant (protein)
TCR alpha: B1 TCR alpha
TCR beta: B1 TCR beta with R46Y, I49R
B28: α32Y-E: B13.14.1 TCR Vα point mutant (protein)
TCR alpha: B1 TCR alpha with Y32E
TCR beta: B1 TCR beta with R46Y
B29: β51I-M: B13.14.1 TCR Vβ point mutant (protein)
TCR alpha: B1 TCR alpha
TCR beta: B1 TCR beta with R46Y, I49M
B30: α32Y-F: B13.14.1 TCR Vα point mutant (protein)
TCR alpha: B1 TCR alpha with Y32F
TCR beta: B1 TCR beta with R46Y
B31: β51I-V: B13.14.1 TCR Vβ point mutant (protein)
TCR alpha: B1 TCR alpha
TCR beta: B1 TCR beta with R46Y, I49V
B32: β51I-W: B13.14.1 TCR Vβ point mutant (protein)
TCR alpha: B1 TCR alpha
TCR beta: B1 TCR beta with R46Y, I49W

target: T1, KRAS-G12V antigen (RAS G12V-T15 peptide) (Homo sapiens, UniProt P01116, G12V); test: TCR mutant screening in Jurkat-NFAT-Luc cells with antigen-loaded B13 LCL cells (ONE Glo Luciferase); format: cell-based; settings: MHC-II binding region mutants; ratio to wild-type B13.14.1 TCR; 16-24 hours
T1 construct: endogenous in cells; host or cells: patient B13 autologous LCL cells (endogenous HLA-DP); the peptide is synthetic
Method: According to the table below, point mutations were performed on the Vα and Vβ of B13.14.1 TCR (including CDR3 region and […]), and a lentiviral vector shuttle plasmid encoding the TCR mutant was constructed, packaged with the standard lentiviral vector in 293T cells, and B13.14.1TCR mutant were subjected to function screening.
The TCR mutant (CDR3 region) lentiviral vector was transduced into Jurkat-NFAT-Luc cell line, and B13 LCL cells loaded with KRAS-G12V antigen (RAS G12V-T15 peptide, SEQ ID NO: 5) were used as antigen-presenting cells. 2×10^4 TCR-T and 2×10^4 antigen-loaded B13 LCL cells were co-cultured for 16-24 hours, and added with ONE Glo Luciferase to detect the expression of fluorescent signal, and the TCR Mut RLU/WT RLU (ratio of RLU signal value of TCR mutant to RLU signal value of wild-type B13.14.1 TCR) was calculated.
The TCR mutant (MHC-II binding region) lentiviral vector was transduced into the Jurkat-NFAT-Luc cell line, and B13 LCL cells loaded with KRAS-G12V antigen (RAS G12V-T15 peptide, SEQ ID NO: 5) were used as the antigen-presenting cells. 2×10^4 TCR-T and 2×10^4 antigen-loaded B13 LCL cells were co-cultured for 16-24 hours, the fluorescence signal expression was detected by adding ONE Glo Luciferase, and TCR Mut RLU/WT RLU (ratio of RLU signal value of TCR mutant to RLU signal value of wild-type B13.14.1TCR) was calculated.

Row | TCR Mut RLU/WT RLU [%] | Molecule
1 | 62.60 | B1
2 | 27.57 | B2
3 | 5.60 | B3
4 | 4.56 | B4
5 | 19.95 | B5
6 | 19.64 | B6
7 | 4.94 | B7
8 | 4.64 | B8
9 | 34.02 | B9
10 | 88.58 | B10
11 | 6.35 | B11
12 | 40.26 | B12
13 | 3.82 | B13
14 | 4.03 | B14
15 | 3.98 | B15
16 | 5.49 | B16

Row | TCR Mut RLU/WT RLU [%] | Molecule
17 | 6.28 | B17
18 | 63.15 | B18
19 | 32.62 | B19
20 | 4.68 | B20
21 | 32.79 | B21
22 | 12.98 | B22
23 | 25.46 | B23
24 | 21.00 | B24
25 | 34.95 | B25
26 | 5.60 | B26
27 | 9.90 | B27
28 | 4.59 | B28
29 | 26.84 | B29
30 | 3.81 | B30
31 | 35.46 | B31
32 | 22.56 | B32
